Test [1] concerns the target T1, Clostridium perfringens enterotoxin with C-terminal decahistidine tag (CpE-His10) (Clostridium perfringens, UniProt P01558 1-319).
T1 sequence: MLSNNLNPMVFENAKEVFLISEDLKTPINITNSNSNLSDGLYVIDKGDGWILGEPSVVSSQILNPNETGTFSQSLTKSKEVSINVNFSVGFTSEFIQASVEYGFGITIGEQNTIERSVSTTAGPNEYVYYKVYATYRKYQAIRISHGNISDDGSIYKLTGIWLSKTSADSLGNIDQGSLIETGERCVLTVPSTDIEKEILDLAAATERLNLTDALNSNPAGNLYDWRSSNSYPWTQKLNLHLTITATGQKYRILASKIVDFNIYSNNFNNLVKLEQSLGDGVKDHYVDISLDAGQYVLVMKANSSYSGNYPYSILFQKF
In words: BLI. The settings on record: both partners purified.

The target in test [2] is T2, pre-formed non-detergent hsCLDN-4/cCpE-His10 complex (hsCLDN-4 in amphipol A8-35 or in nanodiscs) (Homo sapiens CLDN4; Clostridium …).
T2 chain 1: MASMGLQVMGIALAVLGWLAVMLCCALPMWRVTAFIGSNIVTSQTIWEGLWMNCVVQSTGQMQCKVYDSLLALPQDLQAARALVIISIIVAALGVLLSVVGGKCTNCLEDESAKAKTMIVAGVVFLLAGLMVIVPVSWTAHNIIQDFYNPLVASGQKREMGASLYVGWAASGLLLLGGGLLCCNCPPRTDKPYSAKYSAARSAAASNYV
T2 chain 2: not shown
Description: BLI. The settings on record: both partners purified.

In test [3] the target is T3, pre-formed hsCLDN-3-Biotin/CpE-His10 complex (Homo sapiens CLDN3; Clostridium …, UniProt O15551;P01558).
T3 construct: source: pre-formed from the purified proteins (same method as the cCpE complexes)
Description: BLI. The settings on record: both partners purified.

The target in test [4] is T4, C-terminal domain of Clostridium perfringens enterotoxin with decahistidine tag (cCpE-His10) (Clostridium perfringens, UniProt P01558).
T4 construct: source: insect cells, purified (NiNTA, eluted with imidazole); not shown: His10, C-terminal, kept
In words: BLI. As to conditions: both partners purified.

In test [5] the target is C-terminal domain of Clostridium perfringens enterotoxin (cCpE), tagless (Clostridium perfringens, UniProt P01558).
In test [6] the target is T5, hsCLDN-4/cCpE complex (tagless proteins) (Homo sapiens CLDN4; Clostridium …).
T5 chain 1: T2 chain 1
T5 chain 2: not shown

Some results are limits rather than exact numbers.

The values below come from paper PMC11183071 (Communications Biology, 2024).

As a reminder, the Kd is the free concentration of one partner at which half of the binding sites on the other are occupied at equilibrium, for simple one-to-one binding. The low end stands for higher affinity, the high end for lower affinity.

B1: mouse claudin-4, biotinylated (mmCLDN-4-Biotin) (natural protein)
chain: MASMGLQVLGISLAVLGWLGIILSCALPMWRVTAFIGSNIVTAQTSWEGLWMNCVVQSTGQMQCKMYDSMLALPQDLQAARALMVISIIVGALGMLLSVVGGKCTNCMEDETVKAKIMITAGAVFIVASMLIMVPVSWTAHNVIRDFYNPMVASGQKREMGASLYVGWAASGLLLLGGGLLCCSCPPRSNDKPYSAKYSAARSVPASNYV
modifications: biotin (NHS-PEG4-Biotin) on the N-terminal amine
In test [1], B1 had a dissociation constant Kd of 17.9 ± 0.2 nM.

B2: human claudin-9, biotinylated (hsCLDN-9-Biotin) (natural protein)
chain: MASTGLELLGMTLAVLGWLGTLVSCALPLWKVTAFIGNSIVVAQVVWEGLWMSCVVQSTGQMQCKVYDSLLALPQDLQAARALCVIALLLALLGLLVAITGAQCTTCVEDEGAKARIVLTAGVILLLAGILVLIPVCWTAHAIIQDFYNPLVAEALKRELGASLYLGWAAAALLMLGGGLLCCTCPPPQVERPRGPRLGYSIPSRSGASGLDKRDYV
modifications: biotin (NHS-PEG4-Biotin) on the N-terminal amine
Consider B2, for which the Kd in test [1] was determined as 10.5 ± 0.2 nM.

B3: mouse claudin-3, biotinylated (mmCLDN-3-Biotin) (natural protein)
chain: MSMGLEITGTSLAVLGWLCTIVCCALPMWRVSAFIGSSIITAQITWEGLWMNCVVQSTGQMQCKMYDSLLALPQDLQAARALIVVSILLAAFGLLVALVGAQCTNCVQDETAKAKITIVAGVLFLLAALLTLVPVSWSANTIIRDFYNPLVPEAQKREMGAGLYVGWAAAALQLLGGALLCCSCPPRDKYAPTKILYSAPRSTGPGTGTGTAYDRKDYV
modifications: biotin (NHS-PEG4-Biotin) on the N-terminal amine
In test [1], B3 had a Kd of 16.1 ± 0.2 nM.

B4: human claudin-4, biotinylated (hsCLDN-4-Biotin) (natural protein)
chain: T2 chain 1
modifications: biotin (NHS-PEG4-Biotin) on the N-terminal amine
In turn, B4 returned a dissociation constant (Kd) in test [1] of 7.3 ± 0.2 nM.

B5: COP-1 (CpE Obstructing Protein 1), synthetic antibody fragment (Fab, V domains shown)
VH: EVQLVESGGGLVQPGGSLRLSCAASGFNFSSSYIHWVRQAPGKGLEWVASISSSSGSTSYADSVKGRFTISADTSKNTAYLQMNSLRAEDTAVYYCARWFHPWWWWEYLFRGAIDYWGQGTLVTVSS
VL: DIQMTQSPSSLSASVGDRVTITCRASQSVSSAVAWYQQKPGKAPKLLIYSASSLYSGVPSRFSGSRSGTDFTLTISSLQPEDFATYYCQQSSSSLITFGQGTKVEIK
notes: also called sFab
For the molecule B5, the Kd in test [2] was below 100 nM. The binding result in test [3] is reported as “no binding (tested: 250 nM COP-1)”; in test [4], “no binding (tested: 0–750 nM COP-1)”.

B6: COP-3 (antibody, V domains shown)
VH: EVQLVESGGGLVQPGGSLRLSCAASGFNFYSSSIHWVRQAPGKGLEWVAYISSYSGYTYYADSVKGRFTISADTSKNTAYLQMNSLRAEDTAVYYCARGYGYFDYNFSVGYALDYWGQGTLVTVSS
VL: DIQMTQSPSSLSASVGDRVTITCRASQSVSSAVAWYQQKPGKAPKLLIYSASSLYSGVPSRFSGSRSGTDFTLTISSLQPEDFATYYCQQSHPWYYPITFGQGTKVEIK
Consider B6, for which the binding result in test [5] and in test [6] was “binds” in each case.

B7: human claudin-3, biotinylated (hsCLDN-3-Biotin) (natural protein)
chain: MSMGLEITGTALAVLGWLGTIVCCALPMWRVSAFIGSNIITSQNIWEGLWMNCVVQSTGQMQCKVYDSLLALPQDLQAARALIVVAILLAAFGLLVALVGAQCTNCVQDDTAKAKITIVAGVLFLLAALLTLVPVSWSANTIIRDFYNPVVPEAQKREMGAGLYVGWAAAALQLLGGALLCCSCPPREKKYTATKVVYSAPRSTGPGASLGTGYDRKDYV
modifications: biotin (NHS-PEG4-Biotin) on the N-terminal amine
For B7, binding in test [1] was put at a Kd of 77.6 ± 0.9 nM.
